This data set deals with the molecule itself. The data set can be described thus: negative-stain electron microscopy of purified complexes.

B1: Cdc11 (natural protein, S. cerevisiae, UniProt P32458 1-415, looked up)
chain: MSGIIDASSALRKRKHLKRGITFTVMIVGQSGSGRSTFINTLCGQQVVDTSTTILLPTDTSTEIDLQLREETVELEDDEGVKIQLNIIDTPGFGDSLDNSPSFEIISDYIRHQYDEILLEESRVRRNPRFKDGRVHCCLYLINPTGHGLKEIDVEFIRQLGSLVNIIPVISKSDSLTRDELKLNKKLIMEDIDRWNLPIYNFPFDEDEISDEDYETNMYLRTLLPFAIIGSNEVYEMGGDVGTIRGRKYPWGILDVEDSSISDFVILRNALLISHLHDLKNYTHEILYERYRTEALSGESVAAESIRPNLTKLNGSSSSSTTTRRNTNPFKQSNNINNDVLNPASDMHGQSTGENNETYMTREEQIRLEEERLKAFEERVQQELLLKRQELLQREKELREIEARLEKEAKIKQEE
With B1, the binding result is listed as “binds”.

The values are drawn from article PMC3079881 (Developmental cell, 2011).
